Measured values: patent US20220088221A1, “SELF-ASSEMBLED PEPTIDE NANOPARTICLE AND USE THEREOF” (THE METHODIST HOSPITAL, priority 2019, published 2022)
“Also recorded” adds a separate entry of the source. Where two headings read alike, the source gives them in different places.

Test: Self-assembly and size of CPP-peptide/TLR ligand nanoparticles (DLS, AFM)
Format: physicochemical
Description: FIG. 3A-1, FIG. 3A-2, FIG. 3B-1, FIG. 3B-2, FIG. 3C-1 and FIG. 3C-2 show self-assembled nanoparticles of TAT-TRP2 with CpG and MPLA (CM for short). […] AFM analysis indicates the size of cross section of the nanoparticle;
Grey bars indicate unstable/polydispersed complex with large PDI (PDI>0.5);
While both CPP-antigen peptide (10 mM) and CpG (10 mM) were soluble in PBS, but once mixed (1:1), precipitations or aggregates were observed. These aggregates were round nanoparticles, with a diameter of […] in size. The self-assembly was believed to occur through electric interaction of positively charged CPPs with negatively charged molecules, as well as hydrophobic interaction between the peptides themselves and monophosphoryl lipid A (MPLA).
MPLA and poly I:C were completely dissolved in sterile ultrapure water at a concentration of 1 mg/mL. To prepare the TAT-peptide vaccine nanoparticles, CpG, MPLA, and poly I:C of indicated volume (shown in Table 3) were mix thoroughly in ultrapure water or buffer by intensive vortex.
Self-assembly of the TAT-peptide nanoparticles was triggered by dropwise addition of TAT-peptide with ultrasonication in iced water bath within 1 min. […] The hydrophobic C-terminus of TRP2 peptide forms a hydrophobic core together with the MPLA via hydrophobic interactions.
Grey bars indicate unstable/polydispersed complexes with large PDI (PDI>0.5).

Sequence	complex / nanoparticle formation with CpG and MPLA (AFM)	complex / nanoparticle formation with CpG and MPLA (AFM) (listed as TRP2)
SYVDFFVWL [TRP2 peptide]	failed to form complex with CpG-MPLA and formed long fibers; also recorded: failed to form complexes	could not form a particle
YGRKKRRQRRRSYVDFFVWL [TAT-TRP2]	formed tight complexes	–
